The values below are quoted from earlier work in publication PMC4072394.

In one data set the test system is Asp299. As to the kind of experiment: UV-vis. Particulars: detergent-solubilised, unphotolysed (ground) state with protonated Schiff base.
In the next data set the test system is Glu169. As to the kind of experiment: UV-vis. Particulars: detergent-solubilised, unphotolysed (ground) state with protonated Schiff base.

As to “Channelrhodopsin-1 (CaChR1) (Chlamydomonas augustae)”, the values for the pKa entry in the data set with Asp299 and in the data set with Glu169 were “near 5” and “near 9”, respectively.
